Experimental data from patent US20200255474.

B1: recombinant MK5 (protein)
chain: MSEESDMDKAIKETSILEEYSINWTQKLGAGISGPVRVCVKKSTQERFALKILLDRPKARNEVRLHMMCATHPNIVQIIEVFANSVQFPHESSPRARLLIVMEMMEGGELFHRISQHRHFTEKQASQVTKQIALALRHCHLLNIAHRDLKPENLLFKDNSLDAPVKLCDFGFAKIDQGDLMTPQFTPYYVAPQVLEAQRRHQKEKSGIIPTSPTPYTYNKSCDLWSLGVIIYVMLCGYPPFYSKHHSRTIPKDMRRKIMTGSFEFPEEEWSQISEMAKDVVRKLLKVKPEERLTIEGVLDHPWLNSTEALDNVLPSAQLMMDKAVVAGIQQAHAEQLANMRIQDLKVSLKPLHSVNNPILRKRKLLGTKPKDSVYIHDHENGAEDSNVALEKLRDVIAQCILPQAGKGENEDEKLNEVMQEAWKYNRECKLLRDTLQSFSWNGRGFTDKVDRLKLAEIVKQVIEEQTTSHESQ
B2: recombinant TTK (protein)
chain: MESEDLSGRELTIDSIMNKVRDIKNKFKNEDLTDELSLNKISADTTDNSGTVNQIMMMANNPEDWLSLLLKLEKNSVPLSDALLNKLIGRYSQAIEALPPDKYGQNESFARIQVRFAELKAIQEPDDARDYFQMARANCKKFAFVHISFAQFELSQGNVKKSKQLLQKAVERGAVPLEMLEIALRNLNLQKKQLLSEEEKKNLSASTVLTAQESFSGSLGHLQNRNNSCDSRGQTTKARFLYGENMPPQDAEIGYRNSLRQTNKTKQSCPFGRVPVNLLNSPDCDVKTDDSVVPCFMKRQTSRSECRDLVVPGSKPSGNDSCELRNLKSVQNSHFKEPLVSDEKSSELIITDSITLKNKTESSLLAKLEETKEYQEPEVPESNQKQWQSKRKSECINQNPAASSNHWQIPELARKVNTEQKHTTFEQPVFSVSKQSPPISTSKWFDPKSICKTPSSNTLDDYMSCFRTPVVKNDFPPACQLSTPYGQPACFQQQQHQILATPLQNLQVLASSSANECISVKGRIYSILKQIGSGGSSKVFQVLNEKKQIYAIKYVNLEEADNQTLDSYRNEIAYLNKLQQHSDKIIRLYDYEITDQYIYMVMECGNIDLNSWLKKKKSIDPWERKSYWKNMLEAVHTIHQHGIVHSDLKPANFLIVDGMLKLIDFGIANQMQPDTTSVVKDSQVGTVNYMPPEAIKDMSSSRENGKSKSKISPKSDVWSLGCILYYMTYGKTPFQQIINQISKLHAIIDPNHEIEFPDIPEKDLQDVLKCCLKRDPKQRISIPELLAHPYVQIQTHPVNQMAKGTTEEMKYVLGQLVGLNSPNSILKAAKTLYEHYSGGESHNSSSSKTFEKKRGKK

Target: recombinant PHB2
Sequence (chain, as listed by the source): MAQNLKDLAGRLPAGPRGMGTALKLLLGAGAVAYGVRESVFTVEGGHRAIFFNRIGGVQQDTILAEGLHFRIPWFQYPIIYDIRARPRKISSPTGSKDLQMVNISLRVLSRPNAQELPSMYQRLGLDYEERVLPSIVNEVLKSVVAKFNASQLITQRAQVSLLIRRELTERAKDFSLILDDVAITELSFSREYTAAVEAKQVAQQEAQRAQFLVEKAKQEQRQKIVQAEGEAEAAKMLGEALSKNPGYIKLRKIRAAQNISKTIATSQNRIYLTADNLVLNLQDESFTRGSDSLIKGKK

Protein	phosphorylation of PHB2 (Phos-tag SDS-PAGE), molar ratio PHB2:MK5=1:0.25	phosphorylation of PHB2 (Phos-tag SDS-PAGE), molar ratio PHB2:MK=1:2 or more	phosphorylation of PHB2 (Phos-tag SDS-PAGE), molar ratio PHB2:TTK=1:2 or greater	phosphorylation of PHB2 (Phos-tag SDS-PAGE), molar ratio TTK:PHB2 1:1
B1	6.5% phosphorylation	a band for 75% phosphorylation was detected		
B2			a band for 75% phosphorylation was clearly detected	28% phosphorylation
